In publication PMC10604209, “Thermal Characterization and Interaction of the Subunits from the Multimeric Bacteriophage Endolysin PlyC” (Biology, 2023):

B1: PlyCA, the catalytic subunit of the endolysin PlyC (enzyme, UniProt Q7Y3F1 1-465, looked up)
chain: MSKKYTQQQYEKYLAQPANNTFGLSPQQVADWFMGQAGARPVINSYGVNASNLVSTYIPKMQEYGVSYTLFLMYTVFEGGGAGNWINHYMYDTGSNGLECLEHDLQYIHGVWETYFPPALSAPECYPATEDNAGALDRFYQSLPGRTWGDVMIPSTMAGNAWVWAYNYCVNNQGAAPLVYFGNPYDSQIDSLLAMGADPFTGGSITGDGKNPSVGTGNATVSASSEANREKLKKALTDLFNNNLEHLSGEFYGNQVLNAMKYGTILKCDLTDDGLNAILQLIADVNLQTNPNPDKPTVQSPGQNDLGSGSDRVAANLANAQAQVGKYIGDGQCYAWVGWWSARVCGYSISYSTGDPMLPLIGDGMNAHSIHLGWDWSIANTGIVNYPVGTVGRKEDLRVGAIWCATAFSGAPFYTGQYGHTGIIESWSDTTVTVLEQNILGSPVIRSTYDLNTFLSTLTGLITFK
B2: PlyCB, the cell wall binding subunit of the endolysin PlyC (PlyCB CBD, an octamer) (natural protein)
chain: MSKINVNVENVSGVQGFLFHTDGKESYGYRAFINGVEIGIKDIETVQGFQQIIPSINISKSDVEAIRKAMKK
notes: PlyCB, 8 kDa subunit of the streptococcal bacteriophage endolysin PlyC; Above about 74 °C in PBS the octamer is said to dissociate reversibly into a monomeric intermediate state; also called PlyCB octamer; PlyCB subunit; source: also as a subunit of the purified recombinant PlyC holoenzyme

What was measured:
[1] = molecular target: B2; test: cell-based or functional assay
[2] = molecular target: B1; test: SEC; 500 uL ice-cold 19.5 uM PlyCA added rapidly to 500 uL 15.6 uM PlyCB CBD in PBS heated to 75 °C, cooled on ice 5 min, centrifuged, HiPrep 16/60 Sephacryl S-200 HR in PBS; the peak corresponding to native PlyC analysed by SDS-PAGE; conditions: both partners purified
[3] = molecular target: the molecule itself; test: cross-linking; PlyCB CBD 1 mg/mL in PBS heated 10 min at temperatures up to 74.4 °C, amine cross-linking with 1 mM BS3 for 10 min, quenched with Tris, cooled on ice, SDS-PAGE

Binder | bacteriolytic activity toward S. pyogenes (turbidity reduction assay) of ice-cold PlyCA mixed about 1:1 with PlyCB CBD heated to 75 °C and then rapidly cooled, relative to native PlyC [1] | binding result [2] | binding result [3]
B1 | 35 % of the relative bacteriolytic activity of native PlyC |  | 
B2 |  | binds | binds
